Measured values as given in patent publication US11078465B2, “Alcohol dehydrogenase mutant and application thereof in synthesis of diaryl chiral alcohols” (Jiangnan University, priority 2018, dated 2021).
Residue numbers refer to the chain shown, from its start. Numbers in names are those of the source. Where “and” joins values, the source holds several entries; their conditions need not be identical. Identical values can stand only once. Entries after “also recorded” stand apart in the source; their conditions may differ.

Assays:
Format in all cases: biochemical
[1] = Stereoselectivity (ee) of CPMK reduction, chiral liquid chromatography
Experimental: (§1) In an embodiment of the present disclosure, a chromatographic analysis method is as follows: 100 μL of reactant liquid is taken, 500 μL of ethyl acetate is added, shaking is performed for 1-2 min, centrifugation is performed at 12,000 rpm for 2-5 min, supernatant liquid is taken into a centrifuge tube, after an organic phase naturally volatilizes completely, 500 μL of chromatographically pure ethanol is added, and chiral liquid chromatography and gas chromatography are performed to analyze the transformation rate and the ee value.
(§2) Method for determining optical purity ee:
(§3) As: molar concentration of (S)-CPMA obtained by liquid chromatography; and AR: molar concentration of (R)-CPMA obtained by liquid chromatography.

[2] = Substrate specificity, specific activity
Experimental: (§4) Adopting a total reaction system of 200 μL, including: 1.0 mM NADPH, 1.0 mM substrate CPMK and sodium phosphate buffer (PBS, 100 mM, pH 7.0), fully and evenly mixing, maintaining at 30° C. for 2 min, adding an appropriate amount of enzyme solution, and detecting the change in light absorption at 340 nm.
(§5) The enzyme activity was calculated by the following formula: Enzyme activity (U)=EW×V×10^3/(6220×I);
(§6) in the formula, EW is the change in absorbance at 340 nm in 1 min; V is the volume of a reaction solution in mL; 6220 is the molar extinction coefficient of NADPH in L/mol·cm); and 1 is the optical path distance in cm. One activity unit (U) corresponds to the amount of enzyme required to catalyze the oxidation of 1 μmol NADPH per minute under the above conditions.
(§7) The reduction on prochiral carbonyl compounds by the alcohol dehydrogenase mutants obtained in Example 3 was studied. The pro-chiral carbonyl compounds include (4-chlorophenyl)-(pyridin-2-yl)-methanone (CPMK), phenyl-(pyridin-2-yl)-methanone, (4-chlorophenyl)-(phenyl)-methanone, (4-bromophenyl)(phenyl)methanone, (4-fluorophenyl)(phenyl)methanone, (4-methoxyphenyl)-(phenyl)-methanone, (4-nitrophenyl)(phenyl)methanone, 1-(pyridin-2-yl)ethanone, acetophenone, 4′-Chloroacetophenone, 4-chlorophenacyl chloride, ethyl 2-oxo-4-phenylbutanoate (OPBE), ethyl 4-chloro-3-oxobutanoate, and methyl 2-oxo-2-phenylacetate.

[3] = Stereoselectivity on different substrates; conditions: for Stereoselectivity (ee): configuration in brackets
Experimental: as §1, §2, §3, §7
All the products above were recrystallized from ethyl acetate and gave more than 99.9% optical purity.

[4] = Stereoselectivity on different substrates; conditions: configuration in brackets
Experimental: as §1, §2, §3, §7

[5] = Asymmetric reduction in 20 mL biocatalytic system, conversion
Experimental: as §1
The pure (R)-CPMA were recrystallized from ethyl acetate at 4° C. and gave 99.9% optical purity. […] Besides, the conversion cannot reach 100% with 24 h in the asymmetric reduction of (4-bromophenyl)-(phenyl)-methanone and p-nitrobenzophenone due to the low enzyme activity.

[6] = Kinetic analysis of alcohol dehydrogenase and mutants (NADPH oxidation, 340 nm, double reciprocal curve); conditions: substrate CPMK
Experimental: as §4, §5, §6
A column used for purification was a nickel affinity column HisTrap FF crude, and purification was achieved through affinity chromatography using a histidine tag on recombinant protein. The nickel column was equilibrated with a solution A first, a crude enzyme solution was loaded, a penetrating peak was further eluted off using the solution A, and after equilibrium, a solution B (20 mM sodium phosphate, 500 mM NaCl, and 1000 mM imidazole, pH 7.4) was used for gradient elution to elute off the recombinant protein bound to the nickel column, so as to obtain the recombinant alcohol dehydrogenase mutant. The purified protein was subjected to activity measurement (CPMK as substrate, and NADPH as coenzyme) and SDS-PAGE analysis. […] The purified alcohol dehydrogenase protein was then replaced into a Tris-HCl (100 mM, pH 7.0) buffer using a Hi Trap Desalting column (GE Healthcare).
The activity of KpADH at different substrate concentrations and coenzyme concentrations was determined, and a double reciprocal curve was made based on the reciprocal of activity and substrate concentration to calculate kinetic parameters.

[7] = product configuration in brackets
[8] = substrate [drawing 6], 4-chlorophenacyl chloride
[9] = substrate [drawing 9], ethyl 4-chloro-3-oxobutanoate
[10] = substrate [drawing 10], acetophenone
[11] = substrate [drawing 11], 4-chloroacetophenone
[12] = substrate [drawing 12], 4-chlorobenzoyl chloride
[13] = substrate [drawing 16], (4-bromophenyl)-(phenyl)-methanone
[14] = substrate [drawing 17], p-nitrobenzophenone
[15] = substrate [drawing 14], likely CPMK (values partly match Table 4)

B1: E214G/S237C: glycine for glutamate at position 214 and cysteine for serine at position 237 of SEQ ID No. 2 (protein)
chain: MSVLISGASGYIAKHIVRVLLEQNYKVIGTVRSQDKADKLLKQYNNPNLSYEIVPEIANLDAFDDIFKKHGKEIKYVIHAASPVNFGAKDLEKDLVIPAINGTKNMFEAIKKYAPDTVERVVMTASYASIMTPHRQNDPTLTLDEETWNPVTEENAYENVFTAYCASKTFAEKEAWKFVKENSDAVKFKLTTIHPSFVFGPQNFDEDVTKKLNGTCEIINGLLHAPFDTKVEKTHFCQFIDVRDVAKTHVLGFQKDELINQRLLLCNGAFSQQDIVNVFNEDFPELKGQFPPEDKDTDLNKGVTGCKIDNEKTKKLLAFEFTPFHKTIHDTVYQILHKEGRV
modifications: Protein translated from synthetic DNA
configuration of product / stereoselectivity in words [1]: inversion from the R configuration to the S configuration; also recorded: (S)-CPMA | ee value, (S)-CPMA ([1]; S configuration product): 75.5% | e.e. [1, 7]: 75.5 (S) | specific activity ([2]; substrate [drawing 1]): 0.15 U/mg | specific activity ([2]; substrate [drawing 2]): 0.07 U/mg | specific activity ([2]; substrate [drawing 3]): 0.12 U/mg | specific activity ([2]; substrate [drawing 4]): 3.10 U/mg | specific activity ([2]; substrate [drawing 5]): 4.84 U/mg | specific activity [2, 8]: 9.81 U/mg | specific activity ([2]; substrate [drawing 7]): 10.26 U/mg | specific activity ([2]; substrate [drawing 8]): 21.25 U/mg | specific activity [2, 9]: 1.55 U/mg | Stereoselectivity (ee) [3, 10]: 99.5 (R) | Stereoselectivity (ee) [3, 11]: 93.8 (R) | Stereoselectivity (ee) [3, 12]: 96.2 (R) | Stereoselectivity (ee) [3, 13]: 91.4 (R) | Stereoselectivity (ee) [3, 14]: 93.3 (R) | ee value ([3]; substrate acetophenone, R configuration products): 99.5% | Stereoselectivity (ee) ([4]; substrate [drawing 13]): 51.9 (R) | Stereoselectivity (ee) [4, 15]: 43.2 (S) | Stereoselectivity (ee) ([4]; substrate [drawing 15]): 86.2 (R) | Stereoselectivity (ee) ([4]; substrate [drawing 18]): 93.8 (S) | Conversion rate ([5]; acetophenone 100 mM, 1 h): 42% | Conversion rate ([5]; acetophenone 100 mM, 2 h): 53% | Conversion rate ([5]; acetophenone 100 mM, 3 h): 65% | Conversion rate ([5]; acetophenone 100 mM, 4 h): 77% | Conversion rate ([5]; acetophenone 100 mM, 6 h): 95% | Conversion rate ([5]; acetophenone 100 mM, 8 h): 99.0% | Conversion rate ([5]; acetophenone 100 mM, 12 h): >99.9% | Conversion rate ([5]; acetophenone 100 mM, 24 h): >99.9% | Conversion rate ([5]; acetophenone 200 mM, 1 h): 35% | Conversion rate ([5]; acetophenone 200 mM, 2 h): 49% | Conversion rate ([5]; acetophenone 200 mM, 3 h): 60% | Conversion rate ([5]; acetophenone 200 mM, 4 h): 72% | Conversion rate ([5]; acetophenone 200 mM, 6 h): 85.9% | Conversion rate ([5]; acetophenone 200 mM, 8 h): 93.6% | Conversion rate ([5]; acetophenone 200 mM, 12 h): 99.2% | Conversion rate ([5]; acetophenone 200 mM, 24 h): 99.7% | Conversion rate ([5]; acetophenone 500 mM, 1 h): 20.9% | Conversion rate ([5]; acetophenone 500 mM, 2 h): 34.5% | Conversion rate ([5]; acetophenone 500 mM, 3 h): 49.6% | Conversion rate ([5]; acetophenone 500 mM, 4 h): 62.6% | Conversion rate ([5]; acetophenone 500 mM, 6 h): 77.9% | Conversion rate ([5]; acetophenone 500 mM, 8 h): 88.6% | Conversion rate ([5]; acetophenone 500 mM, 12 h): 92.9% | Conversion rate ([5]; acetophenone 500 mM, 24 h): 99.2%

B2: WT: wild type alcohol dehydrogenase KpADH, amino acid sequence SEQ ID No. 2 (protein)
chain: B1 chain with G214E, C237S
modifications: Protein translated from synthetic DNA
ee value, (R)-CPMA ([1]; R configuration product): 82% and 81.7% | e.e. [1, 7]: 81.7 (R) | ee % [1, 7]: 81.7 (R) % | specific activity ([2]; substrate [drawing 1]): 0.99 U/mg | specific activity ([2]; substrate [drawing 2]): 1.34 U/mg | specific activity ([2]; substrate [drawing 3]): 4.15 U/mg | specific activity ([2]; substrate [drawing 4]): 4.07 U/mg | specific activity ([2]; substrate [drawing 5]): 12.09 U/mg | specific activity [2, 8]: 20.67 U/mg | specific activity ([2]; substrate [drawing 7]): 27.02 U/mg | specific activity ([2]; substrate [drawing 8]): 39.77 U/mg | specific activity [2, 9]: 41.84 U/mg | Stereoselectivity (ee) [3, 10]: 88.6 (R) | Stereoselectivity (ee) [3, 11]: 92.9 (R) | Stereoselectivity (ee) [3, 12]: 95.2 (R) | Stereoselectivity (ee) [3, 13]: 70.5 (S) | Stereoselectivity (ee) [3, 14]: 37.6 (R) | Stereoselectivity (ee) ([4]; substrate [drawing 13]): 27.5 (R) | Stereoselectivity (ee) [4, 15]: 83.7 (R) | Stereoselectivity (ee) ([4]; substrate [drawing 15]): 52.4 (S) | Stereoselectivity (ee) ([4]; substrate [drawing 18]): 27.3 (R) | ee in asymmetric synthesis of (R)-CPMA ([5]; 20 mL biocatalytic system, 30° C., pH 7.5): 82% | Conversion rate ([5]; CPMK 100 mM, 1 h): 50.5% | Conversion rate ([5]; CPMK 100 mM, 2 h): 65.5% | Conversion rate ([5]; CPMK 100 mM, 3 h): 79.5% | Conversion rate ([5]; CPMK 100 mM, 4 h): 88.8% | Conversion rate ([5]; CPMK 100 mM, 6 h): 98.5% | Conversion rate ([5]; CPMK 100 mM, 8 h): >99.9% | Conversion rate ([5]; CPMK 100 mM, 12 h): >99.9% | Conversion rate ([5]; CPMK 100 mM, 24 h): >99.9% | Conversion rate ([5]; CPMK 200 mM, 1 h): 35.6% | Conversion rate ([5]; CPMK 200 mM, 2 h): 46.9% | Conversion rate ([5]; CPMK 200 mM, 3 h): 62.0% | Conversion rate ([5]; CPMK 200 mM, 4 h): 75.5% | Conversion rate ([5]; CPMK 200 mM, 6 h): 95.6% | Conversion rate ([5]; CPMK 200 mM, 8 h): 98.8% | Conversion rate ([5]; CPMK 200 mM, 12 h): 99.4% | Conversion rate ([5]; CPMK 200 mM, 24 h): 99.7% | Conversion rate ([5]; CPMK 500 mM, 1 h): 22.5% | Conversion rate ([5]; CPMK 500 mM, 2 h): 30% | Conversion rate ([5]; CPMK 500 mM, 3 h): 55.6% | Conversion rate ([5]; CPMK 500 mM, 4 h): 66.5% | Conversion rate ([5]; CPMK 500 mM, 6 h): 80.2% | Conversion rate ([5]; CPMK 500 mM, 8 h): 93.2% | Conversion rate ([5]; CPMK 500 mM, 12 h): 95.6% | Conversion rate ([5]; CPMK 500 mM, 24 h): 99.2%

B3: E214Q/S237C: glutamine for glutamate at position 214 and cysteine for serine at position 237 of SEQ ID No. 2 (protein)
chain: B1 chain with G214Q
modifications: Protein translated from synthetic DNA
Kcat [6]: 7.06 ± 0.63 s⁻¹ | Km [6]: 550 ± 20 µM | Vmax [6]: 10.59 ± 0.16 µM/min/mg | configuration of product / stereoselectivity in words [1]: inversion from the R configuration to the S configuration; also recorded: (S)-CPMA | e.e. [1, 7]: 44.6 (S) | specific activity ([2]; substrate [drawing 1]): 0.22 U/mg | specific activity ([2]; substrate [drawing 2]): 0.12 U/mg | specific activity ([2]; substrate [drawing 3]): 0.09 U/mg | specific activity ([2]; substrate [drawing 4]): 5.65 U/mg | specific activity ([2]; substrate [drawing 5]): 3.65 U/mg | specific activity [2, 8]: 10.25 U/mg | specific activity ([2]; substrate [drawing 7]): 9.89 U/mg | specific activity ([2]; substrate [drawing 8]): 22.65 U/mg | specific activity [2, 9]: 2.65 U/mg | Stereoselectivity (ee) [3, 10]: 96.5 (R) | Stereoselectivity (ee) [3, 11]: 93.5 (R) | Stereoselectivity (ee) [3, 12]: 97.6 (R) | Stereoselectivity (ee) [3, 13]: 92.6 (R) | Stereoselectivity (ee) [3, 14]: 93.3 (R) | Stereoselectivity (ee) ([4]; substrate [drawing 13]): 56.6 (R) | Stereoselectivity (ee) [4, 15]: 44.6 (S) | Stereoselectivity (ee) ([4]; substrate [drawing 15]): 88.6 (R) | Stereoselectivity (ee) ([4]; substrate [drawing 18]): 90.6 (R)
